In doi:10.1101/2025.02.18.638599 one finds stoichiometry N data, which are given here for 1 substance.

The target of the assay is AcrA S273C (Escherichia coli) (UniProt P0AE06). Briefly: cryo-EM structure.

Turning to “AcrA S273C (from UniProt P0AE06 25-397) (natural protein)”, the stoichiometry N (usually a count of units in the complex or per binding partner) turned out to be 6.
